The values below come from paper PMC8967867 (2022).

In test [1] the target is CID1R^AltAll, alternative reconstructed CID of the early vertebrate ancestor (1R) with the second most likely …. Description: ITC. A general note: ITC needs no label: the signal is the heat of the interaction.
In test [2] the target is T1, CID1R^ML, maximum likelihood reconstructed CBP-interacting domain (CID) of the NCOA family from an early ….
T1 chain: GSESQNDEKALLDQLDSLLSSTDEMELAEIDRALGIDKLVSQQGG
As to the kind of experiment: ITC.

In the case of GSTPPQALQQLLQTLKSPSSPQQQQQVLQILKSNPQLMAAFIKQRSQHQQ (domain or fragment), the affinity in test [1], expressed as Kd, was 2200 nM.

Turning to IMPPALQQLLQTLKSPNSPQQQQQVLHILKSNPQLMAAFIKQRSQQQQ (domain or fragment), the Kd – broadly, the free concentration of one partner at which half of the binding sites on the other are occupied at equilibrium, for simple one-to-one binding – in test [2] is 9.7 µM.
